Measurements as given in US20240324599A1, “PESTICIDAL ENZYMES FOR USE ON NEMATODES, INSECTS, AND MOLLUSKS” (priority 2023, published 2024).

Legend:
Type in all cases: in vivo
corn [1] = experiment: Field trial: esterase on MAP/DAP fertilizer, corn yield; conditions: for Yield: corn, 2 fl oz/A on MAP/DAP (72 lb/A Phosphate)
Protocol: Esterase A (EstA) from Bacillus subtilis (SEQ ID NO:254) was produced via fermentation of a recombinantly produced enzyme in Bacillus subtilis. 2 fl oz of fermentation product was applied onto either 72 lb P/A (phosphate equivalent per acre) monoammonium phosphate (MAP) fertilizer or diammonium phosphate (DAP) fertilizer in a concrete mixer, and allowed to mix for 1 minute. A MAP/DAP control treatment without fermentation media was also created. MAP or DAP, alone or with fermentation media was distributed across 4 small replicated plots each prior to planting of corn with 5 replicates of 400 ft2 each at each site (4 site with MAP, 4 sites with DAP, combined in data in Table 52 below).

corn [2] = experiment: Field trial: EstA Esterase corn seed treatment, yield; conditions: text to Table 59; 2.5 fl oz/unit
Description: 2.5 fl oz/unit of EstA Esterase from recombinant Bacillus subtilis fermentation (SEQ ID NO: 254) was coated onto hybrid corn seeds treated with Fludioxinil, Azoxystrobin, mefonoxam, and thiabendaz fungicides, cyantraniliproleinsecticide, peridium 1006 polymer, and (colorant). A control treatment without esterase enzyme was also created. The seed treated with esterase and control seed was planted in replicated trials distributed across 16 replicated plots with 4 replicates of 80 ft2 each at each site.

winter wheat [3] = experiment: Field trial: esterase on urea fertilizer, winter wheat yield; conditions: for Yield: winter wheat
Protocol: (§1) Esterase A (EstA) from Bacillus subtilis (SEQ ID NO:254) was produced via fermentation of a recombinantly produced enzyme in Bacillus subtilis. 1 fl oz or 2 fl oz of fermentation product was applied onto 15 lb N/A (nitrogen equivalent per acre) urea fertilizer in a concrete mixer and allowed to mix for 1 minute. A urea control treatment without fermentation media was also created. urea, alone or with fermentation media was distributed across 4 small replicated plots prior to planting of winter wheat with 5 replicates of 300 ft^2 each at each site.

corn [4] = experiment: Field trial: esterase on urea with or without NBPT, corn yield; conditions: for Yield: corn
Protocol: Esterase A (EstA) from Bacillus subtilis (SEQ ID NO:254) was produced via fermentation of a recombinantly produced enzyme in Bacillus subtilis. 1, 2, or 3 fl oz of fermentation product was applied onto 135 lb N/A (nitrogen equivalent per acre) urea fertilizer in a concrete mixer, and allowed to mix for 1 minute. A urea control treatment without fermentation media was also created. An addition treatment that contained 64 fl oz/ton N-Butyl-thiophosphoric triamide (NBPT) nitrogen stabilizer or 64 fl oz/ton NBPT nitrogen stabilizer with 3 fl oz/A EstA fermentation product was also included in the trial. Urea, alone or with fermentation media was distributed across 4 small replicated plots each prior to planting of corn with 4 replicates of 400 ft2 each at each site.

corn [5] = experiment: Field trial: esterase on DAP fertilizer, corn yield; conditions: for Yield: corn
Protocol: Esterase A (EstA) from Bacillus subtilis (SEQ ID NO:254) was produced via fermentation of a recombinantly produced enzyme in Bacillus subtilis. 1, 2, or 3 fl oz of fermentation product was applied onto 67.5 lb P/A (phosphate equivalent per acre) diammonium phosphate (DAP) fertilizer in a concrete mixer, and allowed to mix for 1 minute. A DAP control treatment without fermentation media was also created. DAP, alone or with fermentation media was distributed across 4 small replicated plots each prior to planting of corn with 4 replicates of 400 ft^2 each at each site.

winter wheat [6] = experiment: Field trial: esterase on MAP fertilizer, winter wheat yield and vigor; conditions: for Yield: winter wheat
Protocol: as §1, with “oz” for “oz or 2 fl oz”, “lb P/A (phosphate” for “lb N/A (nitrogen”, “acre) monoammonium phosphate (MAP)” for “acre) urea”, “A MAP” for “A urea”, “created. MAP,” for “created. urea,”

B1: Bacillus subtilis EstA Esterase (protein, listed as Bacillus subtilis)
chain: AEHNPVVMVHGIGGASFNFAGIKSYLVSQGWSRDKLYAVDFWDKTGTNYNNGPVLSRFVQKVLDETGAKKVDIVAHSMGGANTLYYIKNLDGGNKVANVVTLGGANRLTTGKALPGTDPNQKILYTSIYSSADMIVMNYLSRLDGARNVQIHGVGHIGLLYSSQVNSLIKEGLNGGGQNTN
notes: fermentation product of recombinant Bacillus subtilis
- Yield (corn [1]; base control 202.3): 206.6 Bu/A
- Yield (corn [1]; base control 12798): 13077 Kg/ha
- yield versus MAP/DAP control, in words (corn [1]; text to Table 52, 2 fl oz on 72 lb P/A MAP or DAP): increased the yield
- yield versus base seed treatment package, in words (corn [2]): increased the yield
- yield versus urea control, in words (winter wheat [3]; text to Table 53, 1 or 2 fl oz on 15 lb N/A urea): increased the yield
- Yield (winter wheat [3]; 1 fl oz/A on Urea (15 lb/A Nitrogen), base control 76.1): 79.6 Bu/A
- Yield (winter wheat [3]; 1 fl oz/A on Urea (15 lb/A Nitrogen), base control 5117.8): 5353.2 Kg/ha
- Yield (winter wheat [3]; 2 fl oz/A on Urea (15 lb/A Nitrogen), base control 76.1): 79.9 Bu/A
- Yield (winter wheat [3]; 2 fl oz/A on Urea (15 lb/A Nitrogen), base control 5117.8): 5375.4 Kg/ha
- Yield (corn [4]; 1 fl oz/A on Urea (135 lb/A Nitrogen), base control 188.2): 205.0 Bu/A
- Yield (corn [4]; 1 fl oz/A on Urea (135 lb/A Nitrogen), base control 11830.4): 12887.5 Kg/ha
- Yield (corn [4]; 2 fl oz/A on Urea (135 lb/A Nitrogen), base control 188.2): 195.8 Bu/A
- Yield (corn [4]; 2 fl oz/A on Urea (135 lb/A Nitrogen), base control 11830.4): 12309.9 Kg/ha
- Yield (corn [4]; 3 fl oz/A on Urea (135 lb/A Nitrogen), base control 188.2): 195.6 Bu/A
- yield versus urea control and NBPT containing treatments, in words (corn [4]; text to Table 55, 1, 2 or 3 fl oz on 135 lb N/A urea): increased the yield
- Yield (corn [5]; 1 fl oz/A on DAP (67.5 lb/A Phosphate), base control 196.0): 201.8 Bu/A
- Yield (corn [5]; 1 fl oz/A on DAP (67.5 lb/A Phosphate), base control 12319.5): 12684.4 Kg/ha
- Yield (corn [5]; 2 fl oz/A on DAP (67.5 lb/A Phosphate), base control 196.0): 204.2 Bu/A
- Yield (corn [5]; 2 fl oz/A on DAP (67.5 lb/A Phosphate), base control 12319.5): 12834.7 Kg/ha
- Yield (corn [5]; 3 fl oz/A on DAP (67.5 lb/A Phosphate), base control 196.0): 202.6 Bu/A
- Yield (corn [5]; 3 fl oz/A on DAP (67.5 lb/A Phosphate), base control 12319.5): 12734.7 Kg/ha
- yield versus DAP control, in words (corn [5]; text to Table 54, 1, 2 or 3 fl oz on 67.5 lb P/A DAP): increased the yield
- vigor of young wheat seedlings, in words (winter wheat [6]; text to Table 51): increased the vigor
- yield versus MAP control, in words (winter wheat [6]; text to Table 51, 1 fl oz fermentation product on 15 lb P/A MAP): increased the yield
- Vigor Score (1 to 5 scale, 5 is highest) (winter wheat [6]; winter wheat seedlings, 1 fl oz/A on MAP (15 lb/A Phosphate), base control 4.0): 4.13
- Yield (winter wheat [6]; 1 fl oz/A on MAP (15 lb/A Phosphate), base control 61.33): 62.82 Bu/A
- Yield (winter wheat [6]; 1 fl oz/A on MAP (15 lb/A Phosphate), base control 4124.5): 4224.7 Kg/ha
